Measured values published in patent US20040005688.

Legend:
[1] = molecular target: T1, Dishevelled (Dsh) protein, endogenous, from Drosophila embryos and Clone-8 cells
T1 chain: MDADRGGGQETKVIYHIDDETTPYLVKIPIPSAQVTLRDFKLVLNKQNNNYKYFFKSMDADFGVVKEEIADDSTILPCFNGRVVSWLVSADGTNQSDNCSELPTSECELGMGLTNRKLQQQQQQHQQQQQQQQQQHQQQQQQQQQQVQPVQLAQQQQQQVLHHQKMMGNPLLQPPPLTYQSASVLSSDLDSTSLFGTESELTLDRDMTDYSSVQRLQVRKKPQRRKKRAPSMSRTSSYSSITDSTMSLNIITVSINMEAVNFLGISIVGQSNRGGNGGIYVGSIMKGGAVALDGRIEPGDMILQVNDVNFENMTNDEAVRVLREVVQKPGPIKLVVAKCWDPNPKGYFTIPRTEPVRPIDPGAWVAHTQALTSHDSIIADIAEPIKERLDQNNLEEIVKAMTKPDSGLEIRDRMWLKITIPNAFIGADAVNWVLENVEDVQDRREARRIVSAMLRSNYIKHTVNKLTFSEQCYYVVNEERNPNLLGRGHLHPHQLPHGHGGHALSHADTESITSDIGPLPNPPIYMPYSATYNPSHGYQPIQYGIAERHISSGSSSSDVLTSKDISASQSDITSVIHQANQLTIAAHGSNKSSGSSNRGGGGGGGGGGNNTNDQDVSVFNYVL

[2] = molecular target: T2, GST-DM5 (GST fusion of the 36 amino acid DM5 segment of Dsh, amino acids 214-249)
T2 chain: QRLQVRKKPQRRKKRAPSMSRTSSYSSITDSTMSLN

B1: Dishevelled Associated Kinase (DAK), endogenous kinase activity from Drosophila embryo and Clone-8 cell lysates (protein)
chain: MSTAMRTTLQSVPEALPADSVSNGTASNVAAPAAPVSSATNAVPPLAAVSSTTATYATNSISTSSHSVKDQQQQQQQQQHDSANANIVSLPPTTTPVANTNTMMPIVTSSNSATSNSTAATPTPASGAAATGGVGSVSQGPATVSASAANTNHSHQHSHQHHHHVANNMTTDGARLSSNNSAVVASSAINHHHHHTPGSGVAPTVNKNVLSTHSAHPSAIKQRTSSAKGSPNMQMRSSAPMRWRATEEHIGKYKLIKTIGKGNFAKVKLAKHLPTGKEVAIKIIDKTQLNPGSLQKLFREVRIMKMLDHPNIVKLFQVIETEKTLYLIMEYASGGEVFDYLVLHGRMKEKEARVKFRQIVSAVQYCHQKRIIHRDLKAENLLLDSELNIKIADFGFSNEFTPGSKLDTFCGSPPYAAPELFQGKKYDGPEVDVWSLGVILYTLVSGSLPFDGSTLRELRERVLRGKYRIPFYMSTDCENLLRKFLVLNPAKRASLETIMGDKWMNMGFEEDELKPYIEPKADLADPKRIEALVAMGYNRSEIEASLSQVRYDDVFATYLLLGRKSTDPESDGSRSGSSLSLRNISGNDAGANAGSASVQSPTHRGVHRSISASSTKPSRRASSGAETLRVGPTNAAATVAAATGAVGAVNPSNNYNAAGSAADRASVGSNFKRQNTIDSATIKENTARLAAQNQRPASATQKMLTTADTTLNSPAKPRTATKYDPTNGNRTVSGTSGIIPRRSTTLYEKTSSTEKTNVIPAETKMASAVKSSRHFPRNVPSRSTFHSGQTRARNNTALEYSGTSGASGDSSHPGRMSFFSKLSSRFSKRPNQ
in vitro kinase assay of Dsh immunoprecipitates [1]: Immunoprecipitated Dsh was phosphorylated in this assay.
in-gel kinase assay [2]: A polypeptide of 110 kDa appeared to account for the major DAK activity and two polypeptides of approximately 125 and 64 kDa appeared to represent minor activity.
